In US20100330158A1, “PROTEIN-ASSISTED DRUG DELIVERY SYSTEM FOR THE TARGETED ADMINISTRATION OF ACTIVE AGENTS” (InnoPharma, LLC, priority 2009, published 2010):

Test system: bovine brain microvascular endothelial cells (BBMVECs)
Test: Flow cytometry binding of FITC-labeled proteins to BBMVECs
Conditions: for shift in fluorescence: FITC-labeled protein incubated with BBMVECs at 4° C. (on ice) for 15 minutes; for % of the cells that bind (strongly) to the protein: BBMVECs, 15 minutes
Method: The three E. coli recombinant proteins (SfaS, SfaA, OmpA) produced in Example 1 are labeled with fluorescein isothiocyanate (FITC) to allow fluorescent detection of proteins. The proteins are labeled using the Thermo-Fisher Pierce FITC labeling kit (Thermo Fisher Scientific Inc., Waltham, Mass.) according to the manufacturer's protocol. The amounts of protein used for the labeling reaction are 0.75 mg (SfaS), 0.8 mg (OmpA) and 1.25 mg (SfaA).
Flow cytometry is performed by incubating the labeled proteins with BBMVECs. These cells are procured from Cell Applications, Inc (San Diego, Calif.). Cells are mixed with FITC proteins (individually) and incubated on ice or at 37° C. for 15 minutes, then washed, and sorted with flow cytometry.

Row | Molecule | shift in fluorescence | % of the cells that bind (strongly) to the protein (4° C. (on ice)) | % of the cells that bind (strongly) to the protein (37° C.)
1 | SfaS: Recombinant His-tagged S fimbriae protein sfaS variant from E. coli CFT073, SEQ ID NO: 2 (protein, His tag; E. coli) MASMTGGQQMGRGSMVDTTITVTGRVLPRTCTIGNGGNPNATVVLDNAYTSDLIAANSTSQWKNFSLTLTNCQNVNNVTATFGGTAENTNYYRNTGDATNIMVELQEQGNGNTPLKVGSTKVVTVSNGQATFNLKVRAVSKGNAGAGSINSQITVTYTYALEHHHHHH | less significant shift | – | –
2 | SfaA: Recombinant His-tagged S fimbriae protein sfaA variant from E. coli CFT073, SEQ ID NO: 4 (protein, His tag; E. coli) MKYLLPTAAAGLLLLAAQPAMAMDIGINGTGSMGTVHFKGEVVNAACAVNTNSFDQTVNLGQVRSERLKVDGAKSNPVGFTIELNDCDSQVSAGAGIVFSGPAVTGKTDVLALQSSAAGSATNVGVQTDHTGKVVPLDGTASSTFTLTDGTNKIPFQAVYYATGQATAGIANADATFKVQYQLEHHHHHH | significant shift | ~37% | ~10%
